Laboratory results: patent publication US20090068174A1, “THERAPEUTIC ALKALINE PROTEASE COMPOSITIONS AND USE IN FACILITATING THE TRANSPORT OF AGENTS ACROSS THE GASTROINTESTINAL MUCOSAL LINING” (Kansas University Medical Center Research Institute, Inc., priority 2007, published 2009)

What was measured:
human IFN-γ = target: T1, human IFN-γ (Homo sapiens, UniProt P01579); assay: Fc receptor-inducing activity of protease-treated human IFN-γ on U937 cells; assay type: cell-based; set-up: key: +: Indicates that the protease inactivated the cytokine; ^a: Cleavage of the cytokine occurred without inactivation; settings: Table 7 summary
T1 sequence (P01579 24-166): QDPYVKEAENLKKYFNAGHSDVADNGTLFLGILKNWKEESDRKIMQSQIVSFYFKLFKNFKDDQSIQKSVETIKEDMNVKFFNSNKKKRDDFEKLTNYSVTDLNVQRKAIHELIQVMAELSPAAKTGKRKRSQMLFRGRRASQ
Procedure: (§1) Effects of the purified A. oryzae proteases on the Fc receptor-inducing activity of human IFN-γ. Samples of the cytokine were first treated with the indicated Pseudomonas or fungal proteases: Elastase (∘); Preparation ([…]); Alkaline Protease (□); Deuterolysin (▪); and 26 kDa Protease (Δ). The treated samples were added to human promyelocytic U937 cells to induce expression of Fc receptors for IgG, which was detected by flow cytometry. The results are plotted either as a decrease in of mean channel fluorescence (A) or a decrease in % positive cells (B) plotted against increasing protease amounts.
as §1, with “Samples” for “Effects of the purified A. oryzae proteases on the Fc receptor-inducing activity of human IFN-γ. Samples”

[1] = Protease stability and solubility in water; assay type: physicochemical
Procedure: For determining the stability of the alkaline protease in drinking water over 0-4 days, proteases can be dissolved in autoclaved tap water at a concentration of 1 mg/ml and stored at either 25° C. or 4° C. At regular intervals (every 3 hours at 0-18 hours, every 8 hours at 18-24 hours, and every 12 hours at 24-96 hours), aliquots can be ascetically removed and tested for their ability to cleave protamine sulfate using a modification of the ninhydrin assay of Rosen. Results are expressed as % residual activity measured immediately after preparation of the protease solutions.

mouse recombinant TNF-α = target: T2, mouse recombinant TNF-α (Mus musculus, UniProt P06804); assay: Cleavage of mouse TNF-α (Western blotting); assay type: biochemical; settings: 100 ng cytokine, 37° C. overnight, Western blot
T2 sequence (P06804 80-235 limits assumed): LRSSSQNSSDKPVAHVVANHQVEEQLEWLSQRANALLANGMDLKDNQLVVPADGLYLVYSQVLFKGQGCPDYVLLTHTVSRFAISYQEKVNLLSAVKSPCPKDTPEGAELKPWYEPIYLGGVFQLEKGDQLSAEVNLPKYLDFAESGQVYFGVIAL
Procedure: Degradation of mouse recombinant TNF-α: (A) or IFN-γ (B) following treatment with: the protease powder prepared according to Example 1 (preparation), purified alkaline protease (AP); Pseudomonas elastase (E); and buffered-treated control (C). The cytokines (100 ng each) were incubated at 37° C. overnight with the indicated quantities (ng) of enzymes, and then analyzed by Western blotting for evidence of degradation. A scan of AP-treated mouse TNF-α (left-hand Western blot) showing the decreasing density of the top band as a function of alkaline protease concentration (C).
Because the anti-TNF-α used here was specific for an epitope located in the carboxyl terminus of the cytokine, the pattern of cleavage is most consistent with attack at the amino terminus of TNF-α (e.g., there is a loss of molecular mass without a loss of the epitope recognized by the antibody).

TNBS-induced colitis = assay: Induction of IBD in the hapten (TNBS)-induced SJL mouse model; assay type: in vivo; settings: SJL mice, i.p. and oral treatment
Procedure: This example uses the TNBS model in the SJL mouse, a susceptible strain, comparing systemic versus oral administration of the alkaline protease as a prophylactic treatment of blocking the induction of gastrointestinal inflammation. Endpoint measurements can include histopathological evaluation and scoring of the lesions as known in the art.
SJL strain mice (Jackson Labs) can be lightly anesthetized, and a solution of 25-50 μg of TNBS in 100 μl 50% ethanol can be administered by enema. Initial studies can determine whether sufficient pathology is induced by a single injection or whether the two challenge protocol (day 0 and day 7) is preferable. Response parameters include: (a) body weight measured on days 0, 2, 4, 6, 8, and 10; (b) pathological scoring of lesions in the intestine on day 10 (0=no inflam; 1=low level leukocyte infiltration; 2=medium infiltration, vascular intensity with some wall thickening; 3=high level infiltration, vascular response and thickening; 4=transmural infiltration, loss of goblet cells); (c) and immunohistological staining for activated caspase-3 and TNF-α. Wall thickening can be measured, for instance, as described by Dohi et al. (1999) “Hapten-induced colitis is associated with colonic patch hypertrophy and T helper cell 2-type responses.” J Expt Med 189: 1169-79, which is incorporated by reference. […]

[2] = Table 1; cited from earlier work

B1: Alkaline Protease: Aspergillus oryzae alkaline protease (oryzin), SEQ ID NO: 2, purified from the protease powder of Example 1 (protein, listed as Aspergillus oryzae)
chain: MQSIKRTLLLLGAILPAVLGAPVQETRRAAEKLPGKYIVTFKPGIDEAKIQEHTTWATNIHQRSLERRGATGGDLPVGIERNYKINKFAAYAGSFDDATIEEIRKNEDVAYVEEDQIYYLDGLTTQKSAPWGLGSISHKGQQSTDYIYDTSAGEGTYAYVVDSGVNVDHEEFEGRASKAYNAAGGQHVDSIGHGTHVSGTIAGKTYGIAKKASILSVKVFQGESSSTSVILDGFNWAANDIVSKKRTSKAAINMSLGGGYSKAFNDAVENAFEQGVLSVVAAGNENSDAGQTSPASAPDAITVAAIQKSNNRASFSNFGKVVDVFAPGQDILSAWIGSSSATNTISGTSMATPHIVGLSLYLAALENLDGPAAVTKRIKELATKDWKDVKGSPNLLAYNGNA
Human IFN-γ
  Inactivation of Human IFN-γ: +
[1]
  Solubility in water: soluble in water
[1]; 4° C. storage
  Stability of catalytic activity on storage: stable with 4 °C storage for several weeks
[1]; for 2 days
  Retention of activity in water: > 80%
Mouse recombinant TNF-α
  Cleavage of mouse TNF-α: evidenced the same substrate specificity
TNBS-induced colitis
  Weight loss and IBD induction by TNBS: can prevent and/or lessen weight loss and IBD induction by TNBS
[2]
  Heat stability (stable at): 37 °C for 3 h
  pI: 6.53
